# Results: publication PMC3163529
# Molecular target: recombinant human PKA catalytic subunit Cα2 (human) (UniProt P17612)
# Test: SPR; C subunits amine-coupled to CM5 chip (about 300 RU), R subunits injected at 30 μl/min; 25°C; 20 mM MOPS pH 7, 150 mM NaCl, 1 mM ATP, 5 mM MgCl2, 50 μM EDTA, 0.005% P20; Langmuir 1:1 model; Biacore 2000 or 3000
substance,measurement,value
recombinant human PKA regulatory subunit RIIβ (from UniProt P31323 1-418) (natural protein; other documents disagree on this pair),Kd,0.9 nM
same,kon,900000 M⁻¹ s⁻¹
